14 proteins from paper PMC12667214, “Phosphomimetic mutations near active sites of proteins in Thermus thermophilus suggest a widespread regulatory mechanism” (FEBS Open Bio, 2025) can be followed below.

Where a chain is given by its changes, count along the chain named. In names and notes the source's numbering stands.

Substrate in data set [1]: O=c1ccn([C@@H]2O[C@H](COP(=O)(O)O)[C@@H](O)[C@H]2O)c(=O)[nH]1
Kind of data set: purified protein. To be noted: 1 mM ATP, 25 °C, pH 7.5, 5 mM MgCl2, 25.0 °C.

Substrate in data set [2]: Nc1ncnc2c1ncn2[C@@H]1O[C@H](COP(=O)(O)OP(=O)(O)OP(=O)(O)O)[C@@H](O)[C@H]1O
The data set is described as follows: pyruvate kinase/lactate dehydrogenase coupled assay, A340. In kind it is biochemical, Thermus thermophilus. The settings on record: excess UMP (methods print 1 mM CMP), 25 °C, pH 7.5, 5 mM MgCl2.

Substrate in data set [3]: O=C(O)C[C@H](C(=O)O)[C@@H](O)C(=O)O
Kind of data set: A340 spectrophotometry. In kind it is biochemical, Thermus thermophilus. To be noted: 4 mM NADP+, 5 mM MgCl2, 100 mM KCl, 50 mM Tris-HCl pH 7.5, 60 °C. An excerpt:
(§1) A340 spectrophotometry on ttIDH (isocitrate dehydrogenase)

Substrate in data set [4]: NC(=O)c1ccc[n+]([C@@H]2O[C@H](COP(=O)(O)OP(=O)(O)OC[C@H]3O[C@@H](n4cnc5c(N)ncnc54)[C@H](OP(=O)(O)O)[C@@H]3O)[C@@H](O)[C@H]2O)c1
Kind of data set: A340 spectrophotometry. The data set is classed as biochemical, Thermus thermophilus. To be noted: 2 mM isocitrate, 5 mM MgCl2, 100 mM KCl, 50 mM Tris-HCl pH 7.5, 60 °C.
Description: as §1

Substrate in data set [5]: Nc1ncnc2c1ncn2[C@@H]1O[C@H](COP(=O)(O)O)[C@@H](O)[C@H]1O
The data set is described as follows: pyruvate kinase/lactate dehydrogenase coupled assay, A340. To be noted: 1 mM ATP, 5 mM MgCl2, 100 mM KCl, 50 mM Tris-HCl pH 7.5, 25 °C. The data set is classed as biochemical, Thermus thermophilus. The source says: pyruvate kinase/lactate dehydrogenase coupled assay, A340 on ttAMPK (AMP kinase)

Substrate in data set [6]: O=P(O)(O)OP(=O)(O)O
The data set is described as follows: phosphate release, BIOMOL Green, A650. In kind it is biochemical, Thermus thermophilus. The settings on record: 2 mM MgCl2, 100 mM KCl, 50 mM Tris-HCl pH 7.5, 60 °C. An excerpt: phosphate release, BIOMOL Green, A650 on ttPPase (inorganic pyrophosphatase)

Substrate in data set [7]: Nc1ncnc2c1ncn2[C@@H]1O[C@H](COP(=O)(O)OP(=O)(O)OP(=O)(O)O)[C@@H](O)[C@H]1O
Kind of data set: pyruvate kinase/lactate dehydrogenase coupled assay, A340. The data set is classed as biochemical, Thermus thermophilus. To be noted: 1 mM CMP, 25 °C, pH 7.5, 5 mM MgCl2. The source says:
(§2) pyruvate kinase/lactate dehydrogenase coupled assay, A340 on ttCMPK (CMP kinase)

Substrate in data set [8]: Nc1ccn([C@@H]2O[C@H](COP(=O)(O)O)[C@@H](O)[C@H]2O)c(=O)n1
The data set is described as above. To be noted: 1 mM ATP, 25 °C, pH 7.5, 5 mM MgCl2. The data set is classed as biochemical, Thermus thermophilus.
Description: as §2

Substrate in data set [9]: NC(=O)C1=CN([C@@H]2O[C@H](COP(=O)(O)OP(=O)(O)OC[C@H]3O[C@@H](n4cnc5c(N)ncnc54)[C@H](O)[C@@H]3O)[C@@H](O)[C@H]2O)C=CC1
The data set is described as follows: A340 spectrophotometry. The data set is classed as biochemical, Thermus thermophilus. The settings on record: 25 μM oxaloacetate, 5 mM MgCl2, 100 mM KCl, 50 mM Tris-HCl pH 7.5, 30 °C. The source says:
A340 spectrophotometry on ttMDH (malate dehydrogenase)

Substrate in data set [10]: O=C(O)CC(=O)C(=O)O
The data set is described as follows: purified protein. To be noted: 0.15 mM NADH, 5 mM MgCl2, 100 mM KCl, 50 mM Tris-HCl pH 7.5, 30 °C, 30.0 °C.

Broadly, the Km is the concentration of substrate that gives half-maximal velocity. The kcat is the maximal rate divided by the concentration of active sites.

B1: ttUMPK (UMP kinase) (Thermus thermophilus HB8) (protein)
chain: MKYKRVLLKLSGEFLTRNGFGIEPEATQALAREIKAAYDTGVQLAIVIGAGNLWRGARQGVGMDRATADYIGMLATIMNALALQDALESLGVPTRVQTALTITQVAEPYIRRRALRHLEKERIVIFGGGTGNPFFSTDTAAALRALEVGAEVVLMAKNKVDGVYSDDPRKNPEAVRFDELTYLEVLNRGLQVMDTTAITLCMEAGLPIVVFDIFKPGALVGIIQGEKVGTLIH
notes: recombinant in E. coli C41(DE3)pRARE2, pET-11a, no tag mentioned; hexamer (prokaryotic UMP kinases)
On to B1, for which the Km in [1] came out at 74 ± 10 µM; in [2], 214 ± 7 µM. For the same protein, the catalytic constant (kcat) in [1] came out at 21 ± 1 s⁻¹; in data set [2], 14 ± 0 s⁻¹.

B2: ttUMPK (UMP kinase) (Thermus thermophilus HB8; S11A) (protein)
chain: B1 chain with S11A
notes: as for B1
For B2, in data set [2], the Km stood at 732 ± 206 µM and the kcat was 0.04 ± 0.02 s⁻¹.

B3: ttIDH (isocitrate dehydrogenase) (Thermus thermophilus HB8) (protein)
chain: PLITTETGKKMHVLEDGRKLITVIPGDGIGPECVEATLKVLEAAKAPLAYEVREAGASVFRRGIASGVPQETIESIRKTRVVLKGPLETPVGYGEKSANVTLRKLFETYANVRPVREFPNVPTPYAGRGIDLVVVRENVEDLYAGIEHMQTPSVAQTLKLISWKGSEKIVRFAFELARAEGRKKVHCATKSNIMKLAEGTLKRAFEQVAQEYPDIEAVHIIVDNAAHQLVKRPEQFEVIVTTNMNGDILSDLTSGLIGGLGFAPSANIGNEVAIFEAVHGSAPKYAGKNVINPTAVLLSAVMMLRYLEEFATADLIENALLYTLEEGRVLTGDVVGYDRGAKTTEYTEAIIQNLGKTPRKTQVRGYKPFRLPQVDGAIAPIVPRSRRVVGVDVFVETNLLPEALGKALEDLAAGTPFRLKMISNRGTQVYPPTGGLTDLVDHYRCRFLYTGEGEAKDPEILDLVSRVASRFRWMHLEKLQEFDGEPGFTKAQGED
notes: recombinant in E. coli C41(DE3)pRARE2, pET-11a, no tag mentioned
With B3, in [3], the Km turned out to be 34 ± 2 µM and the kcat was determined as 26 ± 1 s⁻¹. Besides, in data set [4], the Km came to 39 ± 1 µM and the kcat was determined as 30 ± 2 s⁻¹.

B4: ttIDH (isocitrate dehydrogenase) (Thermus thermophilus HB8; S98E) (protein)
chain: B3 chain with S97E
notes: as for B3
As to B4, in data set [3], the Km is 178 ± 28 µM and the kcat is 0.19 ± 0.02 s⁻¹. In addition, in data set [4], the Km came out at 144 ± 21 µM and the kcat came out at 0.12 ± 0 s⁻¹.

B5: ttAMPK (AMP kinase) (Thermus thermophilus HB8) (protein)
chain: MDVGQAVIFLGPPGAGKGTQASRLAQELGFKKLSTGDILRDHVARGTPLGERVRPIMERGDLVPDDLILELIREELAERVIFDGFPRTLAQAEALDRLLSETGTRLLGVVLVEVPEEELVRRILRRAELEGRSDDNEETVRRRLEVYREKTEPLVGYYEARGVLKRVDGLGTPDEVYARIRAALGI
notes: recombinant in E. coli Rosetta2(DE3), pET-3a, no tag mentioned; monomer
On to B5, for which, in data set [5], the Km worked out at 23 ± 1 µM and the turnover number (kcat) turned out to be 111 ± 3 s⁻¹.

B6: ttAMPK (AMP kinase) (Thermus thermophilus HB8; S34E) (protein)
chain: B5 chain with S34E
notes: as for B5
With B6, in [5], the Km was determined as 153 ± 1 µM and the turnover number (kcat) was 3.7 s⁻¹.

B7: ttAMPK (AMP kinase) (Thermus thermophilus HB8; S34A) (protein)
chain: B5 chain with S34A
notes: as for B5
As to B7, in [5], the Michaelis-Menten constant (Km) turned out to be 71 ± 2 µM and the turnover number (kcat) amounted to 142 ± 4 s⁻¹.

B8: ttPPase (inorganic pyrophosphatase) (Thermus thermophilus HB8) (protein)
chain: ANLKSLPVGDKAPEVVHMVIEVPRGSGNKYEYDPDLGAIKLDRVLPGAQFYPGDYGFIPSTLAEDGDPLDGLVLSTYPLLPGVVVEVRVVGLLLMEDEKGGDAKVIGVVAEDQRLDHIQDIGDVPEGVKQEIQHFFETYKALEAKKGKWVKVTGWRDRKAALEEVRACIARYKG
notes: as for B3
Turning to B8, in data set [6], the Km was 17 ± 2 µM and the kcat was determined as 62 ± 11 s⁻¹.

B9: ttPPase (inorganic pyrophosphatase) (Thermus thermophilus HB8; Y140F) (protein)
chain: B8 chain with Y139F
notes: as for B3
For the protein B9, in data set [6], the Michaelis-Menten constant (Km) turned out to be 53 ± 0 µM and the catalytic constant (kcat) was found to be 19 ± 3 s⁻¹.

B10: ttCMPK (CMP kinase) (Thermus thermophilus HB8; S11E) (protein)
chain: MRGIVTIDGPEASGKSSVARRVAAALGVPYLSSGLLYRAAAFLALRAGVDPGDEEGLLALLEGLGVRLLAQAEGNRVLADGEDLTSFLHTPEVDRVVSAVARLPGVRAWVNRRLKEVPPPFVAEGRDMGTAVFPEAAHKFYLTASPEVRAWRRARERPQAYEEVLRDLLRRDERDKAQSAPAPDALVLDTGGMTLDEVVAWVLAHIRR
notes: recombinant in E. coli C41(DE3)pRARE2, pET-11a, no tag mentioned; monomer
For the protein B10, in [7], the Km came to 60 ± 14 µM and the catalytic constant (kcat) is 0.05 ± 0.01 s⁻¹.

B11: ttCMPK (CMP kinase) (Thermus thermophilus HB8) (protein)
chain: B10 chain with E11S
notes: as for B10
Take B11: in data set [8], the Km was 61 ± 19 µM and the kcat worked out at 54 ± 16 s⁻¹. Moreover, in data set [7], the Km is 53 ± 1 µM and the kcat was found to be 40 ± 1 s⁻¹.

B12: ttCMPK (CMP kinase) (Thermus thermophilus HB8; S11A) (protein)
chain: B10 chain with E11A
notes: as for B10
As for B12, in [8], the Michaelis constant (Km) amounted to 53 ± 3 µM and the kcat was 57 ± 8 s⁻¹.

B13: ttMDH (malate dehydrogenase) (Thermus thermophilus HB8) (protein)
chain: MKAPVRVAVTGAAGQIGYSLLFRIAAGEMLGKDQPVILQLLEIPQAMKALEGVVMELEDCAFPLLAGLEATDDPKVAFKDADYALLVGAAPRKAGMERRDLLQVNGKIFTEQGRALAEVAKKDVKVLVVGNPANTNALIAYKNAPGLNPRNFTAMTRLDHNRAKAQLAKKTGTGVDRIRRMTVWGNHSSTMFPDLFHAEVDGRPALELVDMEWYEKVFIPTVAQRGAAIIQARGASSAASAANAAIEHIRDWALGTPEGDWVSMAVPSQGEYGIPEGIVYSFPVTAKDGAYRVVEGLEINEFARKRMEITAQELLDEMEQVKALGLI
notes: as for B3
Regarding B13, in data set [9], the Michaelis-Menten constant (Km) amounted to 2.7 ± 0.9 µM and the turnover number (kcat) was found to be 126 ± 14 s⁻¹. For the same protein, in data set [10], the Michaelis-Menten constant (Km) is 8.6 ± 0.4 µM and the kcat came out at 203 ± 5 s⁻¹.

B14: ttMDH (malate dehydrogenase) (Thermus thermophilus HB8; S236A) (protein)
chain: B13 chain with S236A
notes: as for B3
Regarding B14, the Michaelis constant (Km) in data set [9] turned out to be 7.6 ± 0.2 µM; in data set [10], 52 ± 2 µM. Further, the values for the kcat in data set [9] and in data set [10] were 468 ± 15 s⁻¹ and 622 ± 8 s⁻¹, respectively.
